In the supplement of paper PMC9112550, “Optimization of the antimicrobial peptide Bac7 by deep mutational scanning” (BMC Biology, 2022):

Tested on: Escherichia coli TOP10
Experiment: shrunken log2 fold change of peptide-encoding DNA abundance (4.5 h post-induction vs induction); higher = less antimicrobial activity (less host growth inhibition)
Conditions: time post-induction: 4.5 h; library: site-saturation at positions 5, 18, 19, 20
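Further: peptides expressed intracellularly from a pBAD plasmid library in pooled LB shake-flask culture, induced with 0.3% L-arabinose, DNA abundance read by NGS, three biological replicates, DESeq2 with apeglm shrinkage.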

In order of rising “shrunken log2 fold change” value:
1. RRIRIRPPRLPRPRPRPQFYPRP  -0.945
2. RRIRHRPPRLPRPRPRPHVYPRP  -0.939
3. RRIRIRPPRLPRPRPRPMFNPRP  -0.923
4. RRIRWRPPRLPRPRPRPIKYPRP  -0.744
5. RRIRIRPPRLPRPRPRPPKDPRP  -0.674
6. RRIRVRPPRLPRPRPRPNVHPRP  -0.546
7. RRIRYRPPRLPRPRPRPWVQPRP  -0.544
8. RRIRVRPPRLPRPRPRPHWIPRP  -0.512
9. RRIRSRPPRLPRPRPRPILKPRP  -0.469
10. RRIRVRPPRLPRPRPRPACLPRP  -0.444
11. RRIRRRPPRLPRPRPRPNDYPRP  -0.407
12. RRIRNRPPRLPRPRPRPCYYPRP  -0.387
13. RRIRPRPPRLPRPRPRPMYSPRP  -0.386
14. RRIRSRPPRLPRPRPRPTWIPRP  -0.38
15. RRIRMRPPRLPRPRPRPCYPPRP  -0.352
16. RRIRFRPPRLPRPRPRPCLDPRP  -0.35
17. RRIRERPPRLPRPRPRPSQSPRP  -0.346
18. RRIRNRPPRLPRPRPRPCYWPRP  -0.345
19. RRIRFRPPRLPRPRPRPCSHPRP  -0.336
20. RRIRIRPPRLPRPRPRPPLYPRP  -0.331
21. RRIRCRPPRLPRPRPRPNSIPRP  -0.314
22. RRIRARPPRLPRPRPRPWMLPRP  -0.306
23. RRIRQRPPRLPRPRPRPIVWPRP  -0.287
24. RRIRFRPPRLPRPRPRPHMMPRP  -0.283
25. RRIRLRPPRLPRPRPRPNKKPRP  -0.256
26. RRIRTRPPRLPRPRPRPSFFPRP  -0.256
27. RRIRSRPPRLPRPRPRPSQGPRP  -0.252
28. RRIRNRPPRLPRPRPRPQMWPRP  -0.234
29. RRIRCRPPRLPRPRPRPSLKPRP  -0.23
30. RRIRRRPPRLPRPRPRPISLPRP  -0.224
31. RRIRVRPPRLPRPRPRPWVMPRP  -0.212
32. RRIRMRPPRLPRPRPRPNIPPRP  -0.207
33. RRIRIRPPRLPRPRPRPYASPRP  -0.206
34. RRIRPRPPRLPRPRPRPHEIPRP  -0.192
35. RRIRRRPPRLPRPRPRPWWNPRP  -0.188
36. RRIRLRPPRLPRPRPRPSTCPRP  -0.179
37. RRIRERPPRLPRPRPRPSTQPRP  -0.177
38. RRIRRRPPRLPRPRPRPYDRPRP  -0.164
39. RRIRERPPRLPRPRPRPLDCPRP  -0.161
40. RRIRGRPPRLPRPRPRPYEQPRP  -0.157
41. RRIRERPPRLPRPRPRPKDKPRP  -0.15
42. RRIRSRPPRLPRPRPRPCDLPRP  -0.144
43. RRIRHRPPRLPRPRPRPSRNPRP  -0.134
44. RRIRHRPPRLPRPRPRPYHTPRP  -0.132
45. RRIRGRPPRLPRPRPRPLYFPRP  -0.131
46. RRIRDRPPRLPRPRPRPHKFPRP  -0.122
47. RRIRSRPPRLPRPRPRPHTLPRP  -0.116
48. RRIRQRPPRLPRPRPRPHEMPRP  -0.111
49. RRIRPRPPRLPRPRPRPHKLPRP  -0.109
50. RRIRWRPPRLPRPRPRPLNSPRP  -0.107
51. RRIRPRPPRLPRPRPRPVSCPRP  -0.095
52. RRIRPRPPRLPRPRPRPIRNPRP  -0.0919
53. RRIRPRPPRLPRPRPRPCWKPRP  -0.0855
54. RRIRFRPPRLPRPRPRPIVRPRP  -0.0797
55. RRIRDRPPRLPRPRPRPCEAPRP  -0.0794
56. RRIRRRPPRLPRPRPRPMCSPRP  -0.0511
57. RRIRIRPPRLPRPRPRPKPHPRP  -0.0472
58. RRIRHRPPRLPRPRPRPWWDPRP  -0.0461
59. RRIRTRPPRLPRPRPRPLSVPRP  -0.0398
60. RRIRYRPPRLPRPRPRPDKPPRP  -0.0375
61. RRIRHRPPRLPRPRPRPGHWPRP  -0.0325
62. RRIRQRPPRLPRPRPRPWCKPRP  -0.0323
63. RRIRIRPPRLPRPRPRPLEKPRP  -0.0295
64. RRIRARPPRLPRPRPRPSSTPRP  -0.0285
65. RRIRNRPPRLPRPRPRPQLTPRP  -0.026
66. RRIRCRPPRLPRPRPRPLAIPRP  -0.0224
67. RRIRHRPPRLPRPRPRPFELPRP  -0.0176
68. RRIRGRPPRLPRPRPRPSSHPRP  -0.0172
69. RRIRQRPPRLPRPRPRPCDSPRP  -0.0167
70. RRIRSRPPRLPRPRPRPSANPRP  -0.0142
71. RRIRYRPPRLPRPRPRPVWHPRP  -0.0131
72. RRIRTRPPRLPRPRPRPAWQPRP  -0.0092
73. RRIRNRPPRLPRPRPRPTIGPRP  -0.00466
74. RRIRFRPPRLPRPRPRPEVLPRP  -0.0031
75. RRIRERPPRLPRPRPRPCGKPRP  -0.00192
76. RRIRQRPPRLPRPRPRPYHVPRP  -0.00172
77. RRIRMRPPRLPRPRPRPKMFPRP  0.0019
78. RRIRTRPPRLPRPRPRPQERPRP  0.00298
79. RRIRTRPPRLPRPRPRPEIVPRP  0.00632
80. RRIRTRPPRLPRPRPRPWWEPRP  0.00671
81. RRIRDRPPRLPRPRPRPNGTPRP  0.00868
82. RRIRLRPPRLPRPRPRPEQKPRP  0.0115
83. RRIRFRPPRLPRPRPRPSHWPRP  0.0131
84. RRIRVRPPRLPRPRPRPMWHPRP  0.0166
85. RRIRNRPPRLPRPRPRPYIGPRP  0.0261
86. RRIRLRPPRLPRPRPRPFGVPRP  0.028
87. RRIRDRPPRLPRPRPRPAKLPRP  0.0322
88. RRIRRRPPRLPRPRPRPIESPRP  0.0332
89. RRIRMRPPRLPRPRPRPKYGPRP  0.0382
90. RRIRERPPRLPRPRPRPTSGPRP  0.0416
91. RRIRCRPPRLPRPRPRPTLEPRP  0.0452
92. RRIRDRPPRLPRPRPRPTFQPRP  0.0497
93. RRIRQRPPRLPRPRPRPTHMPRP  0.0516
94. RRIRHRPPRLPRPRPRPWGRPRP  0.0574
95. RRIRMRPPRLPRPRPRPCNNPRP  0.0654
96. RRIRERPPRLPRPRPRPYHTPRP  0.0711
97. RRIRHRPPRLPRPRPRPSDQPRP  0.0718
98. RRIRLRPPRLPRPRPRPLGRPRP  0.0726
99. RRIRGRPPRLPRPRPRPHALPRP  0.0818
100. RRIRNRPPRLPRPRPRPDWPPRP  0.0862
101. RRIRPRPPRLPRPRPRPPFYPRP  0.0888
102. RRIRARPPRLPRPRPRPCFQPRP  0.105
103. RRIRWRPPRLPRPRPRPLPMPRP  0.105
104. RRIRNRPPRLPRPRPRPASRPRP  0.12
105. RRIRMRPPRLPRPRPRPQGAPRP  0.124
106. RRIRVRPPRLPRPRPRPEKVPRP  0.13
107. RRIRERPPRLPRPRPRPEVRPRP  0.138
108. RRIRKRPPRLPRPRPRPDVNPRP  0.139
109. RRIRIRPPRLPRPRPRPETWPRP  0.142
110. RRIRNRPPRLPRPRPRPKRVPRP  0.148
111. RRIRKRPPRLPRPRPRPHCMPRP  0.159
112. RRIRTRPPRLPRPRPRPKELPRP  0.16
113. RRIRVRPPRLPRPRPRPACFPRP  0.169
114. RRIRARPPRLPRPRPRPLLQPRP  0.171
115. RRIRARPPRLPRPRPRPGICPRP  0.182
116. RRIRHRPPRLPRPRPRPGVPPRP  0.191
117. RRIRARPPRLPRPRPRPRVMPRP  0.197
118. RRIRKRPPRLPRPRPRPLMMPRP  0.207
119. RRIRRRPPRLPRPRPRPLKHPRP  0.208
120. RRIRERPPRLPRPRPRPSEPPRP  0.227
121. RRIRKRPPRLPRPRPRPMWNPRP  0.232
122. RRIRRRPPRLPRPRPRPMHIPRP  0.238
123. RRIRARPPRLPRPRPRPRWIPRP  0.239
124. RRIRCRPPRLPRPRPRPQQAPRP  0.239
125. RRIRPRPPRLPRPRPRPQGDPRP  0.243
126. RRIRNRPPRLPRPRPRPMRLPRP  0.286
127. RRIRLRPPRLPRPRPRPALAPRP  0.305
128. RRIRLRPPRLPRPRPRPRVRPRP  0.325
129. RRIRWRPPRLPRPRPRPGGSPRP  0.341
130. RRIRRRPPRLPRPRPRPLAPPRP  0.399
131. RRIRDRPPRLPRPRPRPDDEPRP  0.425
132. RRIRKRPPRLPRPRPRPMVKPRP  0.427
133. RRIRWRPPRLPRPRPRPTMHPRP  0.454
134. RRIRQRPPRLPRPRPRPPGVPRP  0.462
135. RRIRGRPPRLPRPRPRPSIKPRP  0.47
136. RRIRCRPPRLPRPRPRPLRHPRP  0.479
137. RRIRCRPPRLPRPRPRPRRTPRP  0.54
138. RRIRARPPRLPRPRPRPRCGPRP  0.609
139. RRIRGRPPRLPRPRPRPPCDPRP  0.734
140. RRIRGRPPRLPRPRPRPPNPPRP  0.74
141. RRIRARPPRLPRPRPRPEFEPRP  0.75
142. RRIRFRPPRLPRPRPRPVIFPRP  0.774
143. RRIRQRPPRLPRPRPRPTRQPRP  0.798
144. RRIRNRPPRLPRPRPRPEVWPRP  0.815
145. RRIRMRPPRLPRPRPRPRRWPRP  0.881
146. RRIRWRPPRLPRPRPRPLRPPRP  0.923
147. RRIRMRPPRLPRPRPRPPAMPRP  1.02
148. RRIRMRPPRLPRPRPRPPRCPRP  1.38
149. RRIRKRPPRLPRPRPRPGWSPRP  3
150. RRIRLRPPRLPRPRPRPALSPRP  3.4
